Test results taken from article PMC4137571 (Biomaterials, 2014).
Where “and” joins values, the source holds several entries; their conditions need not be identical. Equal values may be shown once.

Molecular target: the molecule itself
Assay: SEC

B1: HEV P^+ (modified protruding (P) protein of hepatitis E virus with C-terminal cysteine-containing peptide) (domain or fragment)
chain: PTPSPAPSRPFSVLRANDVLWLSLTAAEYDQTTYGSSTNPMYVSDTVTLVNVATGAQAVARSLDWSKVTLDGRPLTTIQQYSKTFYVLPLRGKLSFWEAGTTKAGYPYNYNTTASDQILIENAAGHRVAISTYTTSLGAGPTSISAVGVLAPHSALAVLEDTIDYPCDCRGDCFC
stoichiometry N: 2 and 4
